Assay results reported in patent publication US20250049970A1, “DLL3 TARGETING PEPTIDES AND CONSTRUCTS THEREOF” (MARIANA ONCOLOGY INC., priority 2023, published 2025).
Bridges are numbered along the chain shown (N, C = ends). The star is where a group is joined. DOTA = O=C(O)CN1CCN(CC(=O)O)CCN(CC(=O)*)CCN(CC(=O)O)CC1

B1: SEQ ID NO 79 (peptide)
peptide: Ac-MSDCWLQWNCPFD-NH2
modifications: disulfide 4-10
SMILES: CSCC[C@H](NC(C)=O)C(=O)N[C@@H](CO)C(=O)N[C@@H](CC(=O)O)C(=O)N[C@H]1CSSC[C@@H](C(=O)N2CCC[C@H]2C(=O)N[C@@H](Cc2ccccc2)C(=O)N[C@@H](CC(=O)O)C(N)=O)NC(=O)[C@H](CC(N)=O)NC(=O)[C@H](Cc2c[nH]c3ccccc23)NC(=O)[C@H](CCC(N)=O)NC(=O)[C@H](CC(C)C)NC(=O)[C@H](Cc2c[nH]c3ccccc23)NC1=O
B2: SEQ ID NO 67 (peptide)
peptide: Ac-MWTICADWAQCWP-NH2
modifications: disulfide 5-11
SMILES: CC[C@H](C)[C@H](NC(=O)[C@@H](NC(=O)[C@H](Cc1c[nH]c2ccccc12)NC(=O)[C@H](CCSC)NC(C)=O)[C@@H](C)O)C(=O)N[C@H]1CSSC[C@@H](C(=O)N[C@@H](Cc2c[nH]c3ccccc23)C(=O)N2CCC[C@H]2C(N)=O)NC(=O)[C@H](CCC(N)=O)NC(=O)[C@H](C)NC(=O)[C@H](Cc2c[nH]c3ccccc23)NC(=O)[C@H](CC(=O)O)NC(=O)[C@H](C)NC1=O
B3: SEQ ID NO 78 (peptide)
peptide: Ac-MVWVPCEWDDCFY-NH2
modifications: disulfide 6-11
SMILES: CSCC[C@H](NC(C)=O)C(=O)N[C@H](C(=O)N[C@@H](Cc1c[nH]c2ccccc12)C(=O)N[C@H](C(=O)N1CCC[C@H]1C(=O)N[C@H]1CSSC[C@@H](C(=O)N[C@@H](Cc2ccccc2)C(=O)N[C@@H](Cc2ccc(O)cc2)C(N)=O)NC(=O)[C@H](CC(=O)O)NC(=O)[C@H](CC(=O)O)NC(=O)[C@H](Cc2c[nH]c3ccccc23)NC(=O)[C@H](CCC(=O)O)NC1=O)C(C)C)C(C)C
B4: SEQ ID NO 76 (peptide)
peptide: Ac-MDCNFFDCDAWTW-NH2
modifications: disulfide 3-8
SMILES: CSCC[C@H](NC(C)=O)C(=O)N[C@@H](CC(=O)O)C(=O)N[C@H]1CSSC[C@@H](C(=O)N[C@@H](CC(=O)O)C(=O)N[C@@H](C)C(=O)N[C@@H](Cc2c[nH]c3ccccc23)C(=O)N[C@H](C(=O)N[C@@H](Cc2c[nH]c3ccccc23)C(N)=O)[C@@H](C)O)NC(=O)[C@H](CC(=O)O)NC(=O)[C@H](Cc2ccccc2)NC(=O)[C@H](Cc2ccccc2)NC(=O)[C@H](CC(N)=O)NC1=O

These molecules were tested against T1, DLL3 (target ligand immobilized on a SA sensor chip via streptavidin capture) (Homo sapiens (Human), UniProt Q9NYJ7 27-492, limits assumed) (assay: SPR, Biacore S200, target ligand on SA chip, 25 C, 1:1 fit). Settings: not given.
T1 sequence: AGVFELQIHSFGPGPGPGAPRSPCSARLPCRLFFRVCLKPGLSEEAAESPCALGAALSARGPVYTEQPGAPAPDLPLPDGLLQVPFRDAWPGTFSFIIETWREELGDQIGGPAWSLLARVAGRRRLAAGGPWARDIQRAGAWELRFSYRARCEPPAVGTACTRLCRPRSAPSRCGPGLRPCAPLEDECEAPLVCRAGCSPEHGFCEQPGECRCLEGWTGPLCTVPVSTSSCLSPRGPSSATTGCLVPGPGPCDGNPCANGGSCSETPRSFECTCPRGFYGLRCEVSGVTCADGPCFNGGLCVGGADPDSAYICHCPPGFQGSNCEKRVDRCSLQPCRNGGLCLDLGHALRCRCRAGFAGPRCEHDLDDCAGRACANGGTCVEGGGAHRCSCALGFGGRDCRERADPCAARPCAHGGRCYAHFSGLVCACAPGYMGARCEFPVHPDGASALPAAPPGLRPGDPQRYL
Method: Target ligand was immobilized on a SA sensor chip via streptavidin capture. A reference surface was set up for nonspecific binding and refractive index changes. For analysis of the kinetics of interactions, varying concentrations of peptides were injected at a flow rate of 50 μL/minute using running buffer containing 20 mM phosphate buffer with 2.7 mM KCl, 137 mM NaCl and 0.05% Surfactant P20. Sensorgram curves were fitted with 1:1 binding model, and affinity and kinetic parameters were obtained using either Biacore S200 evaluation software 1.1.1 or Biacore Insight evaluation 4.0.
B1 was tested, and the Kd was 32 nM. In the case of B2, the Kd is reported as 72 nM. Work on B3 yielded a Kd of 68 nM. Molecule B4 has a Kd of 290 nM. {DOTA}-WTICNNWHDCWP-NH2 (disulfide 4-10) [SEQ ID NO 80] was tested, and the Kd was 80 nM.

Each molecule was assayed against T2, DLL3 (Homo sapiens, UniProt Q9NYJ7) (assay: SPR KD, biotinylated human DLL3 on streptavidin chip (Table 8)). Settings: biotinylated human DLL3 on streptavidin sensor chip, 25° C., 1:1 binding model; read-out: SPR KD.
T2 sequence (Q9NYJ7 27-618): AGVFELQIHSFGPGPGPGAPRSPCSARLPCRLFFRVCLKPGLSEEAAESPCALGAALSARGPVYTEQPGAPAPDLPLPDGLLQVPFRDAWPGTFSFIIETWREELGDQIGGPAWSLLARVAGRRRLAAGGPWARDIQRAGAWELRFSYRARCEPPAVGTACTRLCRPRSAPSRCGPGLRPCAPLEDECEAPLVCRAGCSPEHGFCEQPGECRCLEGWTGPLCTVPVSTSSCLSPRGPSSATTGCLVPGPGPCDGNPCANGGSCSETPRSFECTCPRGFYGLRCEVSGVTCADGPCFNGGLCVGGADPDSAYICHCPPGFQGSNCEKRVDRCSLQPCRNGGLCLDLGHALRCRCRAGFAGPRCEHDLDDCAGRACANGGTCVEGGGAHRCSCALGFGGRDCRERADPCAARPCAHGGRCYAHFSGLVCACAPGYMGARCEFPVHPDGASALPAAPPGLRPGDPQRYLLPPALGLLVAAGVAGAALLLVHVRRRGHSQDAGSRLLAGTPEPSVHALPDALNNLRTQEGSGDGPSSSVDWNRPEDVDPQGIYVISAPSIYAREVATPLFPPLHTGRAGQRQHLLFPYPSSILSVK
Design: biotin (biotinylated)
Source text: Biotinylated target ligand human DLL3 was immobilized on a streptavidin sensor chip. A reference surface was set up for nonspecific binding and refractive index changes. […] Sensorgram curves were fitted with 1:1 binding model, and affinity and kinetic parameters were obtained using Biacore Insight evaluation 4.0. software.
For `CCCCCCCCCCCCCCCC(=O)N[C@@H](CCC(=O)NCCOCCOCCOCCOCCOCCOCCOCCOCCOCCOCCOCCOCCOCCOCCOCCOCCOCCOCCOCCOCCOCCOCCOCCOCCC(=O)NCCCC[C@H](NC(=O)CN1CCC(C[C@@H]2NC(=O)[C@@H](NC(=O)[C@H](CC(C)(C)C)N(C)C(=O)[C@@H](NC(=O)[C@H](Cc3c[nH]c4ccccc34)NC(C)=O)[C@@H](C)O)CSCSC[C@@H](C(=O)N[C@@H](Cc3c[nH]c4ccccc34)C(=O)N3CCC[C@H]3C(N)=O)NC(=O)[C@H](CC(=O)O)NC(=O)[C@H](CCCCNC(=O)CN3CCN(CC(=O)O)CCN(CC(=O)O)CCN(CC(=O)O)CC3)NC(=O)[C@H](Cc3ccc4ccccc4c3)NC(=O)[C@H](CC(N)=O)NC2=O)CC1)C(=O)O)C(=O)O` [compound 450, Ac-W-T-(NMe-tBuAla)-C(1)-[PipA(acetic-Lys-PEG24-gE-palmitoyl)]-N-(2Nal)-Lys(DOTA)-D-C(1)-W-P-CONH2], the Kd was less than 1 nM.
